Measured values from patent US11814440B2, “Glypican 2 as a cancer marker and therapeutic target” (THE CHILDREN'S HOSPITAL OF PHILADELPHIA, priority 2015, dated 2023).

T1: GPC2 (Homo sapiens, UniProt Q8N158)
T1 sequence (Q8N158 24-554): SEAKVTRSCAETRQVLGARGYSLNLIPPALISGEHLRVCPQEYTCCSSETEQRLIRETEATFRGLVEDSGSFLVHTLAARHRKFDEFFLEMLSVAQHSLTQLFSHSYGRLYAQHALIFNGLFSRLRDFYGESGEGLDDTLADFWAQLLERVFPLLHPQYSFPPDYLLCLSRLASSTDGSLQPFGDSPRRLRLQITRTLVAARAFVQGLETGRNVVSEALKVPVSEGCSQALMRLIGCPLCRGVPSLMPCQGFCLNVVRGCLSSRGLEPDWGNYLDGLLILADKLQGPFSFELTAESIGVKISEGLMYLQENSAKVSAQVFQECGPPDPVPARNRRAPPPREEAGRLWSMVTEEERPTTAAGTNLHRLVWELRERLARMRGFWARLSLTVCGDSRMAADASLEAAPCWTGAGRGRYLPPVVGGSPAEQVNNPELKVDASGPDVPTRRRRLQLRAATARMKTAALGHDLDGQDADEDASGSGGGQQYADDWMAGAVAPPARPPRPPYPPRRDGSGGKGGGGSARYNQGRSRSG

T2: cancer cell-associated GPC2 (Homo sapiens, UniProt Q8N158)
T2 sequence (Q8N158 24-554): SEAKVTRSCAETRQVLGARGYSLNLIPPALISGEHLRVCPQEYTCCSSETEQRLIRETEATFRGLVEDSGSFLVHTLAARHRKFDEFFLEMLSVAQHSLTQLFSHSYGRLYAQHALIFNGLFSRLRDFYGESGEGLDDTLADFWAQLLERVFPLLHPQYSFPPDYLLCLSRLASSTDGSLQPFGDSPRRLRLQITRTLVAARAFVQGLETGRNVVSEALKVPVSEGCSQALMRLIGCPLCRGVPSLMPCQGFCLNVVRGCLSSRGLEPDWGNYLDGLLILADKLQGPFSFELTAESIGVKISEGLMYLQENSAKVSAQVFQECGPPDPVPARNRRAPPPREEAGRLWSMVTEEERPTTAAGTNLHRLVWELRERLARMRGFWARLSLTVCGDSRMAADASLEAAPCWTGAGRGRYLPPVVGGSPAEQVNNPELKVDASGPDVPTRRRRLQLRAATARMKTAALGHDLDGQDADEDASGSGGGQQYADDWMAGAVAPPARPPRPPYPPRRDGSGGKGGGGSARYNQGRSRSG

B1: m201 (antibody, V domains shown)
VH: EVQLVETGGGVVKPGGSLRLSCAASGFTFSDYYMSWIRQAPGKGLEWVSYISSSGSTIYYADSVKGRFTISRDNSKNTLYLQMNSLRAEDTAVYYCARESGYDYVFDYWGQGTLVAVSS
VL: DIQMTQSPSTLSAFVGDRVTITCRASQSISSWLAWYQQKPGKAPKLLIYAASTLQSGVPSRFSGSGSGTEFTLTISSLQPEDFATYYCQQLNSYPITFGQGTRLEIKR
B2: m202 (antibody, V domains shown)
VH: QVQLVQSGGGLIQPGGSLRLSCAASGFTVSSNYMSWVRQAPGKGLEWVSVIYSGGSTYYADSVKGRFTISRDNSKNTLYLQMNSLRAEDTAVYYCARDSNAFDIWGQGTMVTVSS
VL: EIVLTQSPLSLPVTPGEPASISCRSSQSLLYSNGYNYLDWYLQKPGKSPQVLIYLGSNRASGVPDRFSGSGSGTDFTLKISRVEAEDVGVYYCMQALQTPITFGQGTRLEIKR
B3: m203 (antibody, V domains shown)
VH: EVQLVQSGGGLVQPGGSLRLSCAASGFTFSSYAMSWVRQAPGKGLEWVSAISGSGGSTYYADSVKGRFTISRDNSKNTLSLQMDSLRPEDTAVYYCAKSRDSGNYLDAFDFWGQGTMVTVSS
VL: DIQLTQSPSTLSASVGDRVTITCRASQSISSWLAWYQQKAGKAPRLLIYDASTLESGVPSRFSGTGSGTYFTLTISSLQPEDFATYYCQQFNSFPLTFGGGTKVEIKR

Assays:
GPC2 = target: T1, GPC2; assay: In vitro characterization of GPC2 antibodies; details: for use in CAR-T, ADC and bispecific antibody development
[1] = target: T2, cancer cell-associated GPC2; assay: Targeting of GPC2 by phage display derived human antibodies; assay type: binding; details: isolated from phage display antibody library, affinity matured

Molecule | therapeutic activity in in vitro characterization (GPC2) | specific targeting of cancer cell-associated GPC2 [1]
B1 | promising therapeutic activity | –
B2 | promising therapeutic activity | specifically targeting cancer cell-associated GPC2
B3 | promising therapeutic activity | specifically targeting cancer cell-associated GPC2
